From patent US20260167699A1 (Chugai, published 2026)

T1: FcγRIIa(R) extracellular domain with C-terminal His tag (human, UniProt P12318 34-217)
T1 construct: extracellular domain; R131 allotype; also called 2aR; CD32
T1 sequence: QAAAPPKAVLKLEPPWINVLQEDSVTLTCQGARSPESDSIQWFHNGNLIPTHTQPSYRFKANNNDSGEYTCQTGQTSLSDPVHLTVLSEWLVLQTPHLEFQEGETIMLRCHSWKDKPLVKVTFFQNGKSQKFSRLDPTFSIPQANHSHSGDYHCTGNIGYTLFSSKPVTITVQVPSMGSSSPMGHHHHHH

T2: FcγRIIa(H) extracellular domain with C-terminal His tag (human, UniProt P12318 34-217)
T2 construct: extracellular domain; H131 allotype; also called 2aH; CD32
T2 sequence: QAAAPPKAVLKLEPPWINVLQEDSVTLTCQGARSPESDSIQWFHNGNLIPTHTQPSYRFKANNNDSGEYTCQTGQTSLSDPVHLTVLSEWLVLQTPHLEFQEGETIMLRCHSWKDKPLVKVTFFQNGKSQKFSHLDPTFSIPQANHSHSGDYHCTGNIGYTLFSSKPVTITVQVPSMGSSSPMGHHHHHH

T3: FcγRIIb extracellular domain with C-terminal His tag (human, UniProt P31994 43-217)
T3 construct: extracellular domain; also called 2b; CD32
T3 sequence: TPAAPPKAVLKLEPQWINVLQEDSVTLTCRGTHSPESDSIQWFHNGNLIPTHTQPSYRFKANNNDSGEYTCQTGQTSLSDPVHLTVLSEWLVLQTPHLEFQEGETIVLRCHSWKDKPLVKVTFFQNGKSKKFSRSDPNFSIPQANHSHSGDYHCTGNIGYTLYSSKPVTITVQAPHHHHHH


Columns and labels:
Assay in all cases: SPR; % of GpH7-A5/GpH7-B3/GpL16-k0
[1] = target: T4, FcγRIa extracellular domain with C-terminal His tag (human, UniProt P12314 16-292)
T4 construct: extracellular domain; also called 1a; CD64
T4 sequence (P12314 other isoform, or with tags, fused parts or gaps): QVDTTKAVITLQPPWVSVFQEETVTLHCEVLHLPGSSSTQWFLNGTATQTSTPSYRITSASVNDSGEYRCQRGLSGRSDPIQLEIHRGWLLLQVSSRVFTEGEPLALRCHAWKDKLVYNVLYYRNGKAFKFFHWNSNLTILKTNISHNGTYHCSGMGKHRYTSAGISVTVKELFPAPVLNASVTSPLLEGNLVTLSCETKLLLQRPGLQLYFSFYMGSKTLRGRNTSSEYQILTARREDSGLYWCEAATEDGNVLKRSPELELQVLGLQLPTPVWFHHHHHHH

[2] = target: T1, FcγRIIa(R) extracellular domain with …
[3] = target: T2, FcγRIIa(H) extracellular domain with …
[4] = target: T3, FcγRIIb extracellular domain with …
[5] = target: T5, FcγRIIIa extracellular domain with C-terminal His tag (human, UniProt P08637 17-208)
T5 construct: extracellular domain; also called 3a; CD16
T5 sequence (P08637 other isoform, or with tags, fused parts or gaps): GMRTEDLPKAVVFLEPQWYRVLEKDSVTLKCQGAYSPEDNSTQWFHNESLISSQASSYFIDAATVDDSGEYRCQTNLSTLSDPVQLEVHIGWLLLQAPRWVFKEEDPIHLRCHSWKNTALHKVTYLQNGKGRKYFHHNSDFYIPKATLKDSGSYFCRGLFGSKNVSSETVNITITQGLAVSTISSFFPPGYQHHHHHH

He/Con 1a [1] [%] | He/Con 2aR [2] [%] | He/Con 2aH [3] [%] | He/Con 2b [4] [%] | He/Con 3a [5] [%] | Binder
102 | 107 | 103 | 106 | 92.4 | GpH7-A5/GpH7-B3 variant S337_02A/GpL16-k0 (antibody, human IgG1, kappa, heterodimerized IgG1 (He Ab), mutation in one H chain only; also called He Ab) heavy 1: not shown heavy 2: not shown light: DIVMTQSPLSLPVTPGEPASISCQASESLVHSNRNTYLHWYLQKPGQSPQLLIYKVSNRFSGVPDRFSGSGSGTDFTLKISRVEAEDVGVYYCSQNTHVPPTFGQGTKVEIERTVAAPSVFIFPPSDEQLKSGTASVVCLLNNFYPREAKVQWKVDNALQSGNSQESVTEQDSKDSTYSLSSTLTLSKADYEKHKVYACEVTHQGLSSPVTKSFNRGEC
103 | 109 | 105 | 108 | 92.7 | GpH7-A5/GpH7-B3 variant S337_12R/GpL16-k0 (antibody, human IgG1, kappa, heterodimerized IgG1 (He Ab), mutation in one H chain only; also called He Ab) heavy 1: not shown heavy 2: not shown light: DIVMTQSPLSLPVTPGEPASISCQASESLVHSNRNTYLHWYLQKPGQSPQLLIYKVSNRFSGVPDRFSGSGSGTDFTLKISRVEAEDVGVYYCSQNTHVPPTFGQGTKVEIERTVAAPSVFIFPPSDEQLKSGTASVVCLLNNFYPREAKVQWKVDNALQSGNSQESVTEQDSKDSTYSLSSTLTLSKADYEKHKVYACEVTHQGLSSPVTKSFNRGEC
107 | 108 | 104 | 103 | 90.9 | GpH7-A5/GpH7-B3 variant T335_02A/GpL16-k0 (antibody, human IgG1, kappa, heterodimerized IgG1 (He Ab), mutation in one H chain only; also called He Ab) heavy 1: not shown heavy 2: not shown light: DIVMTQSPLSLPVTPGEPASISCQASESLVHSNRNTYLHWYLQKPGQSPQLLIYKVSNRFSGVPDRFSGSGSGTDFTLKISRVEAEDVGVYYCSQNTHVPPTFGQGTKVEIERTVAAPSVFIFPPSDEQLKSGTASVVCLLNNFYPREAKVQWKVDNALQSGNSQESVTEQDSKDSTYSLSSTLTLSKADYEKHKVYACEVTHQGLSSPVTKSFNRGEC
113 | 115 | 112 | 116 | 102 | GpH7-A5/GpH7-B3 variant T335_07I/GpL16-k0 (antibody, human IgG1, kappa, heterodimerized IgG1 (He Ab), mutation in one H chain only; also called He Ab) heavy 1: not shown heavy 2: not shown light: DIVMTQSPLSLPVTPGEPASISCQASESLVHSNRNTYLHWYLQKPGQSPQLLIYKVSNRFSGVPDRFSGSGSGTDFTLKISRVEAEDVGVYYCSQNTHVPPTFGQGTKVEIERTVAAPSVFIFPPSDEQLKSGTASVVCLLNNFYPREAKVQWKVDNALQSGNSQESVTEQDSKDSTYSLSSTLTLSKADYEKHKVYACEVTHQGLSSPVTKSFNRGEC
108 | 110 | 107 | 106 | 95.1 | GpH7-A5/GpH7-B3 variant T335_01G/GpL16-k0 (antibody, human IgG1, kappa, heterodimerized IgG1 (He Ab), mutation in one H chain only; also called He Ab) heavy 1: not shown heavy 2: not shown light: DIVMTQSPLSLPVTPGEPASISCQASESLVHSNRNTYLHWYLQKPGQSPQLLIYKVSNRFSGVPDRFSGSGSGTDFTLKISRVEAEDVGVYYCSQNTHVPPTFGQGTKVEIERTVAAPSVFIFPPSDEQLKSGTASVVCLLNNFYPREAKVQWKVDNALQSGNSQESVTEQDSKDSTYSLSSTLTLSKADYEKHKVYACEVTHQGLSSPVTKSFNRGEC
102 | 117 | 114 | 124 | 102 | GpH7-A5/GpH7-B3 variant S337_09D/GpL16-k0 (antibody, human IgG1, kappa, heterodimerized IgG1 (He Ab), mutation in one H chain only; also called He Ab) heavy 1: not shown heavy 2: not shown light: DIVMTQSPLSLPVTPGEPASISCQASESLVHSNRNTYLHWYLQKPGQSPQLLIYKVSNRFSGVPDRFSGSGSGTDFTLKISRVEAEDVGVYYCSQNTHVPPTFGQGTKVEIERTVAAPSVFIFPPSDEQLKSGTASVVCLLNNFYPREAKVQWKVDNALQSGNSQESVTEQDSKDSTYSLSSTLTLSKADYEKHKVYACEVTHQGLSSPVTKSFNRGEC
103 | 106 | 105 | 107 | 94.4 | GpH7-A5/GpH7-B3 variant S337_04F/GpL16-k0 (antibody, human IgG1, kappa, heterodimerized IgG1 (He Ab), mutation in one H chain only; also called He Ab) heavy 1: not shown heavy 2: not shown light: DIVMTQSPLSLPVTPGEPASISCQASESLVHSNRNTYLHWYLQKPGQSPQLLIYKVSNRFSGVPDRFSGSGSGTDFTLKISRVEAEDVGVYYCSQNTHVPPTFGQGTKVEIERTVAAPSVFIFPPSDEQLKSGTASVVCLLNNFYPREAKVQWKVDNALQSGNSQESVTEQDSKDSTYSLSSTLTLSKADYEKHKVYACEVTHQGLSSPVTKSFNRGEC
108 | 112 | 107 | 109 | 96.3 | GpH7-A5/GpH7-B3 variant T335_03V/GpL16-k0 (antibody, human IgG1, kappa, heterodimerized IgG1 (He Ab), mutation in one H chain only; also called He Ab) heavy 1: not shown heavy 2: not shown light: DIVMTQSPLSLPVTPGEPASISCQASESLVHSNRNTYLHWYLQKPGQSPQLLIYKVSNRFSGVPDRFSGSGSGTDFTLKISRVEAEDVGVYYCSQNTHVPPTFGQGTKVEIERTVAAPSVFIFPPSDEQLKSGTASVVCLLNNFYPREAKVQWKVDNALQSGNSQESVTEQDSKDSTYSLSSTLTLSKADYEKHKVYACEVTHQGLSSPVTKSFNRGEC
108 | 113 | 107 | 112 | 91.7 | GpH7-A5/GpH7-B3 variant T335_04F/GpL16-k0 (antibody, human IgG1, kappa, heterodimerized IgG1 (He Ab), mutation in one H chain only; also called He Ab) heavy 1: not shown heavy 2: not shown light: DIVMTQSPLSLPVTPGEPASISCQASESLVHSNRNTYLHWYLQKPGQSPQLLIYKVSNRFSGVPDRFSGSGSGTDFTLKISRVEAEDVGVYYCSQNTHVPPTFGQGTKVEIERTVAAPSVFIFPPSDEQLKSGTASVVCLLNNFYPREAKVQWKVDNALQSGNSQESVTEQDSKDSTYSLSSTLTLSKADYEKHKVYACEVTHQGLSSPVTKSFNRGEC
110 | 110 | 106 | 109 | 97 | GpH7-A5/GpH7-B3 variant T335_06M/GpL16-k0 (antibody, human IgG1, kappa, heterodimerized IgG1 (He Ab), mutation in one H chain only; also called He Ab) heavy 1: not shown heavy 2: not shown light: DIVMTQSPLSLPVTPGEPASISCQASESLVHSNRNTYLHWYLQKPGQSPQLLIYKVSNRFSGVPDRFSGSGSGTDFTLKISRVEAEDVGVYYCSQNTHVPPTFGQGTKVEIERTVAAPSVFIFPPSDEQLKSGTASVVCLLNNFYPREAKVQWKVDNALQSGNSQESVTEQDSKDSTYSLSSTLTLSKADYEKHKVYACEVTHQGLSSPVTKSFNRGEC
103 | 114 | 109 | 117 | 97.8 | GpH7-A5/GpH7-B3 variant S337_10E/GpL16-k0 (antibody, human IgG1, kappa, heterodimerized IgG1 (He Ab), mutation in one H chain only; also called He Ab) heavy 1: not shown heavy 2: not shown light: DIVMTQSPLSLPVTPGEPASISCQASESLVHSNRNTYLHWYLQKPGQSPQLLIYKVSNRFSGVPDRFSGSGSGTDFTLKISRVEAEDVGVYYCSQNTHVPPTFGQGTKVEIERTVAAPSVFIFPPSDEQLKSGTASVVCLLNNFYPREAKVQWKVDNALQSGNSQESVTEQDSKDSTYSLSSTLTLSKADYEKHKVYACEVTHQGLSSPVTKSFNRGEC
102 | 108 | 106 | 113 | 96.9 | GpH7-A5/GpH7-B3 variant S337_18N/GpL16-k0 (antibody, human IgG1, kappa, heterodimerized IgG1 (He Ab), mutation in one H chain only; also called He Ab) heavy 1: not shown heavy 2: not shown light: DIVMTQSPLSLPVTPGEPASISCQASESLVHSNRNTYLHWYLQKPGQSPQLLIYKVSNRFSGVPDRFSGSGSGTDFTLKISRVEAEDVGVYYCSQNTHVPPTFGQGTKVEIERTVAAPSVFIFPPSDEQLKSGTASVVCLLNNFYPREAKVQWKVDNALQSGNSQESVTEQDSKDSTYSLSSTLTLSKADYEKHKVYACEVTHQGLSSPVTKSFNRGEC
104 | 107 | 104 | 106 | 89.7 | GpH7-A5/GpH7-B3 variant S337_06M/GpL16-k0 (antibody, human IgG1, kappa, heterodimerized IgG1 (He Ab), mutation in one H chain only; also called He Ab) heavy 1: not shown heavy 2: not shown light: DIVMTQSPLSLPVTPGEPASISCQASESLVHSNRNTYLHWYLQKPGQSPQLLIYKVSNRFSGVPDRFSGSGSGTDFTLKISRVEAEDVGVYYCSQNTHVPPTFGQGTKVEIERTVAAPSVFIFPPSDEQLKSGTASVVCLLNNFYPREAKVQWKVDNALQSGNSQESVTEQDSKDSTYSLSSTLTLSKADYEKHKVYACEVTHQGLSSPVTKSFNRGEC
110 | 109 | 112 | 109 | 100 | GpH7-A5/GpH7-B3 variant T335_05P/GpL16-k0 (antibody, human IgG1, kappa, heterodimerized IgG1 (He Ab), mutation in one H chain only; also called He Ab) heavy 1: not shown heavy 2: not shown light: DIVMTQSPLSLPVTPGEPASISCQASESLVHSNRNTYLHWYLQKPGQSPQLLIYKVSNRFSGVPDRFSGSGSGTDFTLKISRVEAEDVGVYYCSQNTHVPPTFGQGTKVEIERTVAAPSVFIFPPSDEQLKSGTASVVCLLNNFYPREAKVQWKVDNALQSGNSQESVTEQDSKDSTYSLSSTLTLSKADYEKHKVYACEVTHQGLSSPVTKSFNRGEC
103 | 108 | 104 | 108 | 87.1 | GpH7-A5/GpH7-B3 variant S337_03V/GpL16-k0 (antibody, human IgG1, kappa, heterodimerized IgG1 (He Ab), mutation in one H chain only; also called He Ab) heavy 1: not shown heavy 2: not shown light: DIVMTQSPLSLPVTPGEPASISCQASESLVHSNRNTYLHWYLQKPGQSPQLLIYKVSNRFSGVPDRFSGSGSGTDFTLKISRVEAEDVGVYYCSQNTHVPPTFGQGTKVEIERTVAAPSVFIFPPSDEQLKSGTASVVCLLNNFYPREAKVQWKVDNALQSGNSQESVTEQDSKDSTYSLSSTLTLSKADYEKHKVYACEVTHQGLSSPVTKSFNRGEC
